Test results published in publication PMC10279920, “Single-molecule visualization of Pif1 helicase translocation on single-stranded DNA” (The Journal of Biological Chemistry, 2023).
Changes are numbered by the printed parent chain.

Columns and labels:
GFP-Pif1 = target: T1, GFP-Pif1 (Saccharomyces cerevisiae, UniProt P07271, K387A); assay: ATP hydrolysis, [γ-32P]-ATP TLC, Michaelis-Menten fit; format: biochemical; details: M13 ssDNA 1.5 μM nt, 10 nM Pif1, 5 mM MgCl2, 60 mM KCl, pH 7.5, 30 °C, no RPA; labelled compound as tracer
T1 construct: N-terminal superfolder GFP fusion of nuclear isoform residues 40-859, pRSF-Duet-1, E. coli Rosetta2(DE3), Ni-NTA purified
T1 sequence (P07271 40-859 K387A): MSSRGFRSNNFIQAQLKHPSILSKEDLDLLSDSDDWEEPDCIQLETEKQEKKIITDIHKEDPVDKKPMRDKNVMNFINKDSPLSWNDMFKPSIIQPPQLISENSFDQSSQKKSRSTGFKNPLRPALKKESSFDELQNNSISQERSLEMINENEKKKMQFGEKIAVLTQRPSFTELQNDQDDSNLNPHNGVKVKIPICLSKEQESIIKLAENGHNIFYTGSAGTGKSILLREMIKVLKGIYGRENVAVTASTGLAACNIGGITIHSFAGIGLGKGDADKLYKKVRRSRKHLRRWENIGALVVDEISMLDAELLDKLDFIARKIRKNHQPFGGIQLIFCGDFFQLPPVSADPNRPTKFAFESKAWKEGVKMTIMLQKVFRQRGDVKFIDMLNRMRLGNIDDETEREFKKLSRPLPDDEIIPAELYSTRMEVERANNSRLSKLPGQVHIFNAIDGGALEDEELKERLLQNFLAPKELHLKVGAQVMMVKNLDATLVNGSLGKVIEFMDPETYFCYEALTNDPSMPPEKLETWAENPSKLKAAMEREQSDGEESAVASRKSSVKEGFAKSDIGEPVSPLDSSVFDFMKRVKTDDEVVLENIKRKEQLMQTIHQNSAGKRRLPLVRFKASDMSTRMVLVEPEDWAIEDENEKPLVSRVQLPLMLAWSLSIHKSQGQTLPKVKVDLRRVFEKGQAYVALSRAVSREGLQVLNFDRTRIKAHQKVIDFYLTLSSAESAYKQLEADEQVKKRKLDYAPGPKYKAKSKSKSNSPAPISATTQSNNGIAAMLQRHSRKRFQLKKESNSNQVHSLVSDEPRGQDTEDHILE

GFP-Pif1 K387A = target: T2, GFP-Pif1 K387A (Saccharomyces cerevisiae, UniProt P07271 40-859, K387A); assay: EMSA; no ATP, 5 mM Mg2+; 35 mM Tris-HCl pH 7.5, 1 mM DTT, 5 mM MgCl2, 60 mM KCl, 0.1 mg/ml BSA, no ATP, 30 min at 30 C; 5 nM ssDNA; details: protein: recombinant; tags: N-terminal superfolder GFP; Ni-NTA purified; label: 5' Alexa647
T2 sequence: T1 sequence (P07271 40-859 K387A)

GFP-Pif1 F723A = target: T3, GFP-Pif1 F723A (Saccharomyces cerevisiae, UniProt P07271 40-859, F723A); assay: as above; details: protein: recombinant; tags: N-terminal superfolder GFP; Ni-NTA purified; label: 5' Alexa647
T3 sequence: T1 sequence (P07271 40-859 K387A) with A348K, F684A

GFP-Pif1 T301A = target: T4, GFP-Pif1 T301A (Saccharomyces cerevisiae, UniProt P07271 40-859, T301A); assay: EMSA; no ATP, 5 mM Mg2+; up to 50 nM; 35 mM Tris-HCl pH 7.5, 1 mM DTT, 5 mM MgCl2, 60 mM KCl, 0.1 mg/ml BSA, no ATP, 30 min at 30 C; 5 nM ssDNA; details: protein: recombinant; tags: N-terminal superfolder GFP; Ni-NTA purified; label: 5' Alexa647
T4 sequence: T1 sequence (P07271 40-859 K387A) with T262A, A348K

Molecule	Km (GFP-Pif1) [µM]	Kd (GFP-Pif1 K387A) [nM]	Kd (GFP-Pif1 F723A) [nM]	binding result (GFP-Pif1 T301A)
Nc1ncnc2c1ncn2[C@@H]1O[C@H](COP(=O)(O)OP(=O)(O)OP(=O)(O)O)[C@@H](O)[C@H]1O [ATP]	540 ± 290			
GCTAGCAGTAGCCAGCATCGAACGTACGATCGGTAACGTA (ssDNA) [40-nt ssDNA]		29	55.6 ± 18.5	no binding
